Measurements: patent US20230295345A1 (published 2023)
Like-named read-outs stand apart in the source and are kept apart here.

T1: cynomolgus monkey TMPRSS6 expressed on HEK293T cells (CynoTMPRSS6-(His)6)
T1 chain: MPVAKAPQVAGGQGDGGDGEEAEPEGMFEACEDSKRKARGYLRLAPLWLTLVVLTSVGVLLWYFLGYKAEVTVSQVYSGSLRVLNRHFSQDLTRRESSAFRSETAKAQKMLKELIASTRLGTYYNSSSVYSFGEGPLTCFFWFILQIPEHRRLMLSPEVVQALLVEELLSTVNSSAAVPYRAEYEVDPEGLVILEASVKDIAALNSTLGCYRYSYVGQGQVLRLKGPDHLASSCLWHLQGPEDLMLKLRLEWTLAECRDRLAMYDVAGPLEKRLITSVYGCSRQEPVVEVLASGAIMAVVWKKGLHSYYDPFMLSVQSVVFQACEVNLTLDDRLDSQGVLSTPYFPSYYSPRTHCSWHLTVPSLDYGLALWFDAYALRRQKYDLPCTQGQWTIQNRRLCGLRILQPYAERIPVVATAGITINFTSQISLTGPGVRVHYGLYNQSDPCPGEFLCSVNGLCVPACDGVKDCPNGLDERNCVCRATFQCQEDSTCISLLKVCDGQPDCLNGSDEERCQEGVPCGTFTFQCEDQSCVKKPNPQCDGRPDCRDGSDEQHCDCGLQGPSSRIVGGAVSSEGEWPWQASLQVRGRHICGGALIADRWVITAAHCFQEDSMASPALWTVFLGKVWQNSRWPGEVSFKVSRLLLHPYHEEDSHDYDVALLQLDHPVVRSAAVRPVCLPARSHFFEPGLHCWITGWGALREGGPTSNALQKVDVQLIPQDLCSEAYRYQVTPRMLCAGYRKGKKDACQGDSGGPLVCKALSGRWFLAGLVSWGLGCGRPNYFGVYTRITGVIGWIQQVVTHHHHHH

T2: mouse TMPRSS6 expressed on HEK293T cells (MoTMPRSS6-(His)6) (UniProt Q9DBI0 1-811)
T2 chain: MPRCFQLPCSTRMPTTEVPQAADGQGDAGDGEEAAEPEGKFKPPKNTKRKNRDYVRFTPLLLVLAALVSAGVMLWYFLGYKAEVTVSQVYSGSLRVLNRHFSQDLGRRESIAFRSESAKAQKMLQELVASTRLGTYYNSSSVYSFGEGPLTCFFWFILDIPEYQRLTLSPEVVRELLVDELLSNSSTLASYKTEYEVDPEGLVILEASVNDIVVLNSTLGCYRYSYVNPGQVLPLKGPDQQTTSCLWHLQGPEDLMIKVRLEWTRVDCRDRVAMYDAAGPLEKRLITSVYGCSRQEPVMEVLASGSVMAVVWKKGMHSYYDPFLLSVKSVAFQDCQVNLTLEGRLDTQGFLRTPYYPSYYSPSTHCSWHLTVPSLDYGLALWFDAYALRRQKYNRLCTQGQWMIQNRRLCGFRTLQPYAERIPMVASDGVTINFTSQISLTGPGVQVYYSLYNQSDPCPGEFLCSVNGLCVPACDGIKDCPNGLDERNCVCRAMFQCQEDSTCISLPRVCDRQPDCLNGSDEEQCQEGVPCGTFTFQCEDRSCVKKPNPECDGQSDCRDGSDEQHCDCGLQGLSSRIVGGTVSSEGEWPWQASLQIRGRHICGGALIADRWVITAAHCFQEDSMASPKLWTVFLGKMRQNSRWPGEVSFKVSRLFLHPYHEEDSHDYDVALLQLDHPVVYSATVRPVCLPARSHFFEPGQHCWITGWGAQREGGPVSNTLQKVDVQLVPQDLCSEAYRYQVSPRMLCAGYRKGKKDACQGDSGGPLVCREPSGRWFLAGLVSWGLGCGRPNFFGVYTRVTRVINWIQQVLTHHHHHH

T3: human TMPRSS6 (matriptase-2) expressed on HEK293T cells (HuTMPRSS6-(His)6) (UniProt Q8IU80 10-811)
T3 chain: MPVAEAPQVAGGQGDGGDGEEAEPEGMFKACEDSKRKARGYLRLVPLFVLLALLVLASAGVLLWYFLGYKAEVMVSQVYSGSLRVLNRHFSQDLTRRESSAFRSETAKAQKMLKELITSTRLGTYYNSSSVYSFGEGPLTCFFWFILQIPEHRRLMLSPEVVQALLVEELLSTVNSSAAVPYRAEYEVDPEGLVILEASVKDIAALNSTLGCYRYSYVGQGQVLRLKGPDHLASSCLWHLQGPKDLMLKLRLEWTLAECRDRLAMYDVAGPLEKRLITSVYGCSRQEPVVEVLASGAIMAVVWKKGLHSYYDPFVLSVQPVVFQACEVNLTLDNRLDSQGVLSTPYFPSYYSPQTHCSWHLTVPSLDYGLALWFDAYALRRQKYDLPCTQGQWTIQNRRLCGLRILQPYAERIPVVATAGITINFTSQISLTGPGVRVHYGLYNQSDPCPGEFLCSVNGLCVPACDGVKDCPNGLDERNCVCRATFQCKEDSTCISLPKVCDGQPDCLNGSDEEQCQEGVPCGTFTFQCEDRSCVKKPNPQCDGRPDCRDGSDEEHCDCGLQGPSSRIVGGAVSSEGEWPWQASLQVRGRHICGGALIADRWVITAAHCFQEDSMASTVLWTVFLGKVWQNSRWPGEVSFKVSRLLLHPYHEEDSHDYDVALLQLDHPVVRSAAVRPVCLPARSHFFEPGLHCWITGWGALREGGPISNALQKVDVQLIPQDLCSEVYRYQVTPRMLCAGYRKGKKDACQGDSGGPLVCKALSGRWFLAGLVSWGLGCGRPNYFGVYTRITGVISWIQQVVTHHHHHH


Assays:
[1] = target: T1, cynomolgus monkey TMPRSS6 expressed on …; experiment: cell surface ELISA
[2] = target: T2, mouse TMPRSS6 expressed on HEK293T …; experiment: cell surface ELISA
[3] = target: T3, human TMPRSS6 (matriptase-2) expressed …; experiment: FACS
[4] = target: T3, human TMPRSS6 (matriptase-2) expressed …; experiment: cell surface ELISA
[5] = target: T1, cynomolgus monkey TMPRSS6 expressed on …; experiment: cell surface ELISA
[6] = target: T2, mouse TMPRSS6 expressed on HEK293T …; experiment: cell surface ELISA

| EC50 [1] | EC50 [2] | EC50 [3] | EC50 [4] | EC50 [5] | EC50 [6] | Binder |
| --- | --- | --- | --- | --- | --- | --- |
| 0.03 µg/mL | 0.31 µg/mL |  |  |  |  | hzMWTx-003Var anti-TMPRSS6 antibody (antibody, V domains shown) VH: QVQLVQSGAEVKKPGASVKVSCKASGFNIEDYYMHWVRQAPGQRLEWMGRIDPEDAETTYSPKFQGRVTIIPDTSANTAYMELSSLRSEDTAVYYCARSIYLDPMDYWGQGTLVTVSS VL: DIQMTQSPKSLSASVGDRVTITCRASQDVTTALAWYQQKPGQSPKLLIYWATTRHSGVPSRFSGSGSGTDFTLTISSLQPEDFATYYCQQHYSTPYTFGQGTKLEIKR |
|  |  | 1 µg/mL | 0.2 µg/mL | 0.1 µg/mL | 0.25 µg/mL | MWTx-001 anti-TMPRSS6 antibody (antibody, V domains shown) VH: QVQLQQPGAELAKPGASVKMSCKASGYTFTSYWITWVKQRPGQDLEWIGNIYPGSGSTYYNEKFKSKATLTVDTSSRTAYMQLSSLTSADSAVYYCAPYDSDYAMDYWGQGTSVTVSS VL: DIKMTQSPSSMYASLGERVTITCKASQDINNYLSWFQQKPGKSPKTLIYRANRLVDGVPSRVSGSGSGQDYSLTISSLEYEDVGIYFCLQYDEFPLTFGAGTKLELKR |
|  |  | 0.2 µg/mL | 0.05 µg/mL | 0.09 µg/mL | 0.07 µg/mL | MWTx-003 anti-TMPRSS6 antibody (antibody, V domains shown) VH: EVQLQQSGAELVKPGASVKLSCTASGFNIEDYYIHWVKERTEQGLEWIGRIDPEDGETTYAPQFQGKATIIPDTSSNTAYMQLSSLTSEDAAVYYCARSIYLDPMDYWGQGTSVTVSS VL: DIVMTQSHKFMSTSVGDRVSITCKASQDVTTAVAWYQQKPGQSPKILIYWATTRHTGVPDRFTGSISGTTYILTISSVQAEDLALYYCQQHYSTPYTFGGGTKLEIKR |
| 0.06 µg/mL |  |  |  |  |  | hzMWTx-002Var anti-TMPRSS6 antibody (antibody, V domains shown) VH: EVQLVQSGAEVKKPGASVKVSCKASGFNIKDYYIHWVRQATGQGLEWMGRIDPEDAESEYAPKFQGRVTITADTSTDTAYMELSSLRSEDTAVYYCTRGDSMMVTYFDYWGQGTLVTVSS VL: DIQMTQSPSSLSASVGDRVTITCKASQDVSTAVAWYQQKPGKAPKLLIYWAFTRHTGVPSRFSGSGSGTDYALTISSLQPEDFATYYCQQHYRSPWTFGGGTKVEIKR |
|  |  | 0.2 µg/mL | 0.04 µg/mL | 0.06 µg/mL |  | MWTx-002 anti-TMPRSS6 antibody (antibody, V domains shown) VH: EVQLQQSGAELVKPGASVKLSCTASGFNIKDYYIHWVKERTEQGLEWFGRIDPEDGESEYAPKFQGKATLTADTSSNTAYLQLSSLTSEDTAVYYCTRGDSMMVTYFDYWGQGTTLTVSS VL: DIVMTQSHKFMSTSVGDRVSITCKASQDVSTAVAWYQQKPGQSPKLLIYWAFTRHTGVPDRFTSTGSGTDYALTISSVQAEDLALYYCQQHYRSPWTFGGGTKLEIKR |
| 0.003 µg/mL | 0.03 µg/mL |  |  |  |  | hzMWTx-001Var anti-TMPRSS6 antibody (antibody, V domains shown) VH: EVQLVQSGAEVKKPGASVKVSCKASGYTFTSYWITWVRQAPGQRLEWIGNIYPGSGSTYYNEKFKSKATITRDTSSRTAYMELSSLRSEDTAVYYCAPYDADYAMDYWGQGTLVTVSS VL: DIQMTQSPSSLSASVGDRVTITCKASQDISNYLSWFQQKPGKAPKLLIYRANRLVEGVPSRFSGSGSGTDFTLTISSLQPEDFATYFCLQYDEFPLTFGGGTKVEIKR |
